This assay has as its target T1, mouse α2 subunit of prolyl 4-hydroxylase (mouse, UniProt Q60716 20-537).
T1 construct: Recombinant, made in Sf9 insect cells with a baculovirus; also called α(2) subunit of mouse prolyl 4-hydroxylase; α2 polypeptide
The assay is described as follows: coexpression in insect cells; nondenaturing PAGE and Western blot. As for the experimental part: A recombinant baculovirus coding for the mouse α2 subunit was generated and used to infect S. frugiperda insect cells with or without the human PDI/β subunit, wherein the insect cells were infected at a multiplicity of 5. For production of an enzyme tetramer, the human α59 1 (see, Vuori, et al., supra) or mouse α2 viruses and the PDI/β viruses (id.) were used in a 1:1 or 2:1 ratio. The cells were harvested 72 hours after infection, homogenized in 0.01 M tris, pH 7.8/0.1 M NaCl/0.1 M glycine/10 μM dithiothreitol/0.1% Triton X-100, and centrifuged. The resulting supematants were analyzed by SDS/8% PAGE or nondenaturing 7.5% PAGE and assayed for enzyme activities.
For orientation: Immunoblotting shows a protein as a band on a membrane.

The values that follow come from US20020177203A1 (published 2002).

T1 sequence (Q60716 20-537): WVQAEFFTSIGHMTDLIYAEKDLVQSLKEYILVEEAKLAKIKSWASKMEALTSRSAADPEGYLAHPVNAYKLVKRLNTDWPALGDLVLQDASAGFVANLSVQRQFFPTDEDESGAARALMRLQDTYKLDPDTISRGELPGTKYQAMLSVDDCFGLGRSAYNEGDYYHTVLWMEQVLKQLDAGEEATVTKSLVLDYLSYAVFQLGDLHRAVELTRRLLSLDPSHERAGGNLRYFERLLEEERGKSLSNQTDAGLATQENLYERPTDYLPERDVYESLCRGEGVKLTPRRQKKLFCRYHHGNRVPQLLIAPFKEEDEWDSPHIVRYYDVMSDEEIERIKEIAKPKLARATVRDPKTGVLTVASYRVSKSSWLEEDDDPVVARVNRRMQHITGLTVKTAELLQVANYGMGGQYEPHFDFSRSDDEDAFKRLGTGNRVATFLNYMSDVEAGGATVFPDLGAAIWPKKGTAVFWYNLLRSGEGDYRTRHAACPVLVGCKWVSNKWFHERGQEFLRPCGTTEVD

B1: human PDI/β subunit of prolyl 4-hydroxylase (protein disulfide-isomerase) (enzyme)
chain: not shown
notes: Made in Sf9 insect cells with a recombinant baculovirus (Vuori et al.); also called human β subunit
B1: the binding result was “binds”.
